What was measured:
Settings in all cases: protein: recombinant, tags: N-terminal His6 removed by TEV, chain copies: 2, label: 5' biotin and 3' thiol via ligated handles, 52 bp stem, 8 nt loop
hTRF2 full-length [1] = target: T1, hTRF2 full-length (Homo sapiens, UniProt Q15554 43-542); assay: single-molecule magnetic tweezers hairpin unzipping; Hill n=1.2±1.7; Magnetic tweezers: 150 mM KCl (stretching; full buffer, pH and temperature not in material). EMSA: 25 mM HEPES-Na pH 7.5, 50 mM NaCl, 4 C, 30 min
T1 sequence (Q15554 43-542): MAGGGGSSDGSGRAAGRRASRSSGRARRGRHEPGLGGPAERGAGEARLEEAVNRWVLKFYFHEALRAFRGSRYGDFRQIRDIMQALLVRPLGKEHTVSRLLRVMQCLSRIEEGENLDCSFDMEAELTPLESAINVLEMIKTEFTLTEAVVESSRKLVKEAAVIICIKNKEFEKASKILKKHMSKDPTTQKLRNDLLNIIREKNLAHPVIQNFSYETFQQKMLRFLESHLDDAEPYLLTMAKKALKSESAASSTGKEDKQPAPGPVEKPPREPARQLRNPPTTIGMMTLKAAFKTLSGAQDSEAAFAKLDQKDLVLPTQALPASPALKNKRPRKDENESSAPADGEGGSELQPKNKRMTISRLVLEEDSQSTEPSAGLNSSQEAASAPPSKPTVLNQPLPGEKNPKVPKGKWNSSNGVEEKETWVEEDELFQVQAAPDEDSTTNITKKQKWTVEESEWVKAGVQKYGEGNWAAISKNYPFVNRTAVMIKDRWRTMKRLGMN

[2] = target: TRF2 45-500 (deltaB-TRF2) (Homo sapiens, UniProt Q15554 87-542, del43-86); assay: single-molecule magnetic tweezers hairpin unzipping; Hill n=1.0±0.2; Magnetic tweezers: 150 mM KCl (stretching; full buffer, pH and temperature not in material). EMSA: 25 mM HEPES-Na pH 7.5, 50 mM NaCl, 4 C, 30 min
Chain of TRF2 45-500 (deltaB-TRF2) (Q15554 87-542, stated change not applied): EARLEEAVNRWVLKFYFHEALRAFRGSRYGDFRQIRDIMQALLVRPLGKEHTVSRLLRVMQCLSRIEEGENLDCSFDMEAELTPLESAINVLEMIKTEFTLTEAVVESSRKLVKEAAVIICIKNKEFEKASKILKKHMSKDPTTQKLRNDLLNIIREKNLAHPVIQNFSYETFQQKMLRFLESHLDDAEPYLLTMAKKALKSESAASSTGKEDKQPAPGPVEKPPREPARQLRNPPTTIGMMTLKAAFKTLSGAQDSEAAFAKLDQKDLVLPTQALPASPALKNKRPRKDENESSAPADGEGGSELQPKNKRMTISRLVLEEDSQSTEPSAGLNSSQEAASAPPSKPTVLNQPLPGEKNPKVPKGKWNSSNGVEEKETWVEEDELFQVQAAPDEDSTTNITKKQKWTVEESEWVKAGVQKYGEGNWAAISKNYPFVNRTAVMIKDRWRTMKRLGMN

hTRF2 full-length [3] = target: T1, hTRF2 full-length; assay: single-molecule magnetic tweezers hairpin unzipping; Hill n=1.0±0.3; Fb 7 pN; Magnetic tweezers: 150 mM KCl (stretching; full buffer, pH and temperature not in material). EMSA: 25 mM HEPES-Na pH 7.5, 50 mM NaCl, 4 C, 30 min
TRFH (TRF2 42-245) = TRFH (TRF2 42-245) (Homo sapiens, UniProt Q15554 84-287); assay: single-molecule magnetic tweezers hairpin unzipping; no unzipping delay up to 5 uM; very dynamic binding not excluded; Magnetic tweezers: 150 mM KCl (stretching; full buffer, pH and temperature not in material). EMSA: 25 mM HEPES-Na pH 7.5, 50 mM NaCl, 4 C, 30 min
Chain of TRFH (TRF2 42-245) (Q15554 84-287): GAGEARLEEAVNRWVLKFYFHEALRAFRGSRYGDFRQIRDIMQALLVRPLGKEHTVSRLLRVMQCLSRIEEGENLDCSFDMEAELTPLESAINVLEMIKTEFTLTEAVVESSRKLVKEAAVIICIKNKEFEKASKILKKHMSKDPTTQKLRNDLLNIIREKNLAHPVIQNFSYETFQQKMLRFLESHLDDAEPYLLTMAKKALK

| Binder | Kd (hTRF2 full-length [1]) | Kd [2] | Kd (hTRF2 full-length [3]) | binding result (TRFH (TRF2 42-245)) |
| --- | --- | --- | --- | --- |
| non-telomeric hairpin (structured_DNA, 5' phosphate) DNA: CTTGTGCACAGACTCGTTTGGTTATCGAAGGTAAGGTCTGGCGAACGGTGTATTACCGGTTTGCTACCAGGAAAAAAAACCTGGTAGCAAACCGGTAATACACCGTTCGCCAGACCTTACCTTCGATAACCTTTGCAGCCAGGTCAGTAGCGAC | 76.8 ± 31.7 nM | – | – | – |
| 5-repeat telomeric hairpin (structured_DNA, 5' phosphate) DNA: CTTGTGCACAGACTCGTTTGGTTATCGAAGGTTAGGGTTAGGGTTAGGGTTAGGGTTAGGGTGCTACCAGGAAAAAAAACCTGGTAGCACCCTAACCCTAACCCTAACCCTAACCCTAACCTTCGATAACCTTTGCAGCCAGGTCAGTAGCGAC | – | 284 ± 70.5 nM | 10.3 ± 2.9 nM | no binding |

Reference: paper PMC10838314, “Exploring TRF2-Dependent DNA Distortion Through Single-DNA Manipulation Studies”
